{
  "source": "patent US20260008866A1",
  "about": "(published 2026)",
  "binders": {"B1": {"name": "Human (ligand)", "chain": "LFTVTVPKELYIIEHGSNVTLECNFDTGSHVNLGAITASLQKVENDTSPHRERATLLEEQLPLGKASFHIPQVQVRDEGQYQCIIIYGVAWDYKYLTLKVKASYRKINTHILKVPETDEVELTCQATGYPLAEVSWPNVSVPANTSHSRTPEGLYQVTSVLRLKPPPGRNFSCVFWNTHVRELTLASIDLQSQMEPRTHPT"}, "B2": {"name": "Cyno (Fc fusion)", "chain": "LFTVTVPKELYIIEHGSNATLECNFDTGSHVNLGAITASLQKVENDTSPHRERATLLEEQLSLGKALFHIPQVQVRDEGQYQCIIIYGVAWDYKYLTLKVKASYRKINTHILKVPETDEVELTCQATGYPLAEVSWPNISVPANTSHSRTPEGLYQVTSVLRLKPHPGRNFSCVFWNAQVRELTLASIDLQSQIEPRTHP"}},
  "test_in_all_cases": "ForteBio Octet (BLI)",
  "key": {"[1]": {"molecular_target": "20817"}, "[2]": {"molecular_target": "20814"}, "[3]": {"molecular_target": "20809"}, "[4]": {"molecular_target": "20807"}, "[5]": {"molecular_target": "20812"}},
  "data": [
    {"binder": "B1", "values": [
      {"measurement": "Kd", "setting": "[1]", "result": 347, "unit": "pM"},
      {"measurement": "Kd", "setting": "[2]", "result": 325, "unit": "pM"},
      {"measurement": "Kd", "setting": "[3]", "result": 1530, "unit": "pM"},
      {"measurement": "Kd", "setting": "[4]", "result": 580, "unit": "pM"}
    ]},
    {"binder": "B2", "values": [
      {"measurement": "Kd", "setting": "[1]", "result": 283, "unit": "pM"},
      {"measurement": "Kd", "setting": "[5]", "result": 312, "unit": "pM"},
      {"measurement": "Kd", "setting": "[2]", "result": 310, "unit": "pM"},
      {"measurement": "Kd", "setting": "[3]", "result": 253, "unit": "pM"},
      {"measurement": "Kd", "setting": "[4]", "result": 250, "unit": "pM"}
    ]}
  ]
}
